# T1: wild-type human Fas receptor extracellular domain fused to human IgG1-Fc domain with a thrombin cleavage site … (human, UniProt P25445 26-173)
# T1 construct: human Fas receptor, extracellular domain; A thrombin cleavage site lies between the receptor part and the Fc; also called wild-type hFasRECD-T-Fc; hFasRECD-T-Fc
# T1 sequence (looked up): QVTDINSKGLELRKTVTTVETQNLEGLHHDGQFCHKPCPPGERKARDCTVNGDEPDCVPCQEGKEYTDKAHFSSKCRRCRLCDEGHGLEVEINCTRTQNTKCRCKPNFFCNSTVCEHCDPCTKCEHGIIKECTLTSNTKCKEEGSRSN
# Biological target: T1, wild-type human Fas receptor …
# Assay: co-IP; receptor-mediated ligand immunoprecipitation: purified hFasLECD sample with hFasRECD-T-Fc protein and Protein A-agarose beads (immunoprecipitation kit, Roche); precipitate analysed by SDS-PAGE
# Details: both partners purified
row,Binder,binding result
1,"tag-free human Fas ligand extracellular domain (139-281, N184Q, N250Q), N-glycan untrimmed (domain or fragment, UniProt P48023 139-281, looked up, remaining N-glycans, untrimmed, human Fas ligand (281 aa), extracellular domain with residues 103-138 deleted, i.e. residues 139-281, with N184Q and N250Q; Secreted with the S. cerevisiae alpha-factor prepro signal; also called tag-free hFasLECD; N-glycan untrimmed tag-free hFasLECD; source: Pichia pastoris GS115 (Mut+), secreted, purified (two rounds of cation-exchange chromatography)) EKKELRKVAHLTGKSNSRSMPLEWEDTYGIVLLSGVKYKKGGLVIQETGLYFVYSKVYFRGQSCNNLPLSHKVYMRNSKYPQDLVMMEGKMMSYCTTGQMWARSSYLGAVFQLTSADHLYVNVSELSLVNFEESQTFFGLYKL",binds
2,"NFG1CG4-hFasLECD cross-linked with SUNBRIGHT DE-100MA, peak II of the size-exclusion chromatography (domain or fragment, human, UniProt P48023 139-281, looked up, cysteine in the N-terminal tag conjugated with SUNBRIGHT DE-100MA (linear polyethylene glycol of about 10 kDa with a maleimide group at either end): two subunits cross-linked by one molecule, or one subunit conjugated with one molecule; unreacted cysteines capped with N-Ethylmaleimide, human Fas ligand (281 aa), residues 139-281 with N184Q and N250Q; not shown: FLAG-GlyCys(Gly)4, N-terminal, kept) EKKELRKVAHLTGKSNSRSMPLEWEDTYGIVLLSGVKYKKGGLVIQETGLYFVYSKVYFRGQSCNNLPLSHKVYMRNSKYPQDLVMMEGKMMSYCTTGQMWARSSYLGAVFQLTSADHLYVNVSELSLVNFEESQTFFGLYKL",binds
3,"N-glycan trimmed tag-free human Fas ligand extracellular domain (139-281, N184Q, N250Q) (domain or fragment, UniProt P48023 139-281, looked up, N-glycans trimmed with Endo Hf, human Fas ligand (281 aa), residues 139-281 with N184Q and N250Q; Same chain as m1 after Endo Hf digestion; also called N-glycan trimmed tag-free hFasLECD; source: Pichia pastoris GS115 (Mut+), secreted, purified; digested with Endo Hf, Con A-agarose flow-through, Mono S cation-exchange) EKKELRKVAHLTGKSNSRSMPLEWEDTYGIVLLSGVKYKKGGLVIQETGLYFVYSKVYFRGQSCNNLPLSHKVYMRNSKYPQDLVMMEGKMMSYCTTGQMWARSSYLGAVFQLTSADHLYVNVSELSLVNFEESQTFFGLYKL",binds

# Next, values leading:
row,binding result,Binder
1,binds,"SUNBRIGHT ME-050MA conjugated NFG1CG4-hFasLECD (domain or fragment, human, UniProt P48023 139-281, looked up, cysteine in the N-terminal tag conjugated with SUNBRIGHT ME-050MA (linear methoxy polyethylene glycol of about 5 kDa with one maleimide group); a small fraction of subunits not conjugated, human Fas ligand (281 aa), residues 139-281 with N184Q and N250Q; also called SUNBRIGHT ME-050MA adduct of NFG1CG4-hFasLECD; not shown: FLAG-GlyCys(Gly)4, N-terminal, kept) EKKELRKVAHLTGKSNSRSMPLEWEDTYGIVLLSGVKYKKGGLVIQETGLYFVYSKVYFRGQSCNNLPLSHKVYMRNSKYPQDLVMMEGKMMSYCTTGQMWARSSYLGAVFQLTSADHLYVNVSELSLVNFEESQTFFGLYKL"
2,binds,"N-Ethylmaleimide conjugated NFG1CG4-hFasLECD (domain or fragment, human, UniProt P48023 139-281, looked up, cysteine in the N-terminal tag conjugated with N-Ethylmaleimide, human Fas ligand (281 aa), residues 139-281 with N184Q and N250Q; also called N-Ethylmaleimide adduct of NFG1CG4-hFasLECD; not shown: FLAG-GlyCys(Gly)4, N-terminal, kept) EKKELRKVAHLTGKSNSRSMPLEWEDTYGIVLLSGVKYKKGGLVIQETGLYFVYSKVYFRGQSCNNLPLSHKVYMRNSKYPQDLVMMEGKMMSYCTTGQMWARSSYLGAVFQLTSADHLYVNVSELSLVNFEESQTFFGLYKL"
3,binds,"NFG1CG4-hFasLECD cross-linked with SUNBRIGHT DE-100MA, peak III of the size-exclusion chromatography (domain or fragment, human, UniProt P48023 139-281, looked up, cysteine in the N-terminal tag conjugated with SUNBRIGHT DE-100MA (linear polyethylene glycol of about 10 kDa with a maleimide group at either end): two subunits cross-linked by one molecule, or one subunit conjugated with one molecule; unreacted cysteines capped with N-Ethylmaleimide, human Fas ligand (281 aa), residues 139-281 with N184Q and N250Q; not shown: FLAG-GlyCys(Gly)4, N-terminal, kept) EKKELRKVAHLTGKSNSRSMPLEWEDTYGIVLLSGVKYKKGGLVIQETGLYFVYSKVYFRGQSCNNLPLSHKVYMRNSKYPQDLVMMEGKMMSYCTTGQMWARSSYLGAVFQLTSADHLYVNVSELSLVNFEESQTFFGLYKL"
4,binds,"N-terminal FLAG-(Gly)5 tagged human Fas ligand extracellular domain (aa 139-281, N184Q, N250Q) (domain or fragment, UniProt P48023 139-281, looked up, human Fas ligand (281 aa), residues 139-281 with N184Q and N250Q; Positive control of the co-immunoprecipitation; also called NFG5-hFasLECD; not shown: FLAG-(Gly)5, N-terminal, kept) EKKELRKVAHLTGKSNSRSMPLEWEDTYGIVLLSGVKYKKGGLVIQETGLYFVYSKVYFRGQSCNNLPLSHKVYMRNSKYPQDLVMMEGKMMSYCTTGQMWARSSYLGAVFQLTSADHLYVNVSELSLVNFEESQTFFGLYKL"

# Biological target: the molecule itself
# Assay: SDS-PAGE with and without 2-mercaptoethanol; partially purified NFG1CG4-hFasLECD (main peak of the 1st cation-exchange chromatography, concentrated) in sample buffer with or without 2-mercaptoethanol; inter-subunit disulfide bond
# Details: not given
row,Binder,binding result
1,"NFG1CG4-tagged human Fas ligand extracellular domain (139-281, N184Q, N250Q), not conjugated (domain or fragment, UniProt P48023 139-281, looked up, cysteine in the N-terminal tag, partly in a possible inter-subunit disulfide bond, human Fas ligand (281 aa), residues 139-281 with N184Q and N250Q; Made from the NFG5-hFasLECD gene by an insertion mutation that adds a cysteine in the (Gly)5 region of the tag; also called NFG1CG4-hFasLECD; source: Pichia pastoris GS115 (Mut+), secreted; 40-fold concentrated culture supernatant; partially purified by cation-exchange chromatography; not shown: FLAG-GlyCys(Gly)4, N-terminal, kept) EKKELRKVAHLTGKSNSRSMPLEWEDTYGIVLLSGVKYKKGGLVIQETGLYFVYSKVYFRGQSCNNLPLSHKVYMRNSKYPQDLVMMEGKMMSYCTTGQMWARSSYLGAVFQLTSADHLYVNVSELSLVNFEESQTFFGLYKL",binds
